Columns and labels:
[1] = target: somatostatin receptor 3 (pCMV6c-SSTR3); test: cell-based or functional assay
[2] = target: Myc-tagged UNC5H2 (pMyc-UNC5H2) (human) (UniProt Q8IZJ1); test: cell-based or functional assay
Sequence of UniProt Q8IZJ1 (Q8IZJ1 other isoform, or with tags, fused parts or gaps): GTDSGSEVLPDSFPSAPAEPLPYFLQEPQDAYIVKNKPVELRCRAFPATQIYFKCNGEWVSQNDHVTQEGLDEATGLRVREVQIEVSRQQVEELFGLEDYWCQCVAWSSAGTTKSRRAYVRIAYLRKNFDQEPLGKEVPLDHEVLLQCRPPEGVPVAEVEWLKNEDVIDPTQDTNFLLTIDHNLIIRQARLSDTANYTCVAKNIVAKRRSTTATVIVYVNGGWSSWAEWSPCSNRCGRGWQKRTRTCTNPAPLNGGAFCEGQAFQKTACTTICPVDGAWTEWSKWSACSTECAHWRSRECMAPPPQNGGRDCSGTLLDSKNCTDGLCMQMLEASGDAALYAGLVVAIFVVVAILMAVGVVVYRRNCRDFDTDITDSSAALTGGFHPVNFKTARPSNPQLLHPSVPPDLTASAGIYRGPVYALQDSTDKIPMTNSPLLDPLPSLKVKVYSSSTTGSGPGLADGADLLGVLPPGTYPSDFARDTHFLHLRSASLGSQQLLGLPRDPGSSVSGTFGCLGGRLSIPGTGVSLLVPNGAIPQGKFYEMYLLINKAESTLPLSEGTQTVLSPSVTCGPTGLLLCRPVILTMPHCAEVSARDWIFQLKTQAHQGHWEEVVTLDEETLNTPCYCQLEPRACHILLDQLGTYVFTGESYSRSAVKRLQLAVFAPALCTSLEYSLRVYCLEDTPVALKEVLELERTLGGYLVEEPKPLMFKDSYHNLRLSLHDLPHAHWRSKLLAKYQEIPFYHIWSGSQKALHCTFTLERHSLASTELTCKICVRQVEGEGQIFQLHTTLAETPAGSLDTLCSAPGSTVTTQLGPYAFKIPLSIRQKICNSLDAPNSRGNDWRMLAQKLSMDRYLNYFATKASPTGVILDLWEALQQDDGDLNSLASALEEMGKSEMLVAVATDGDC

decrease in cAMP accumulation in transfected COS7 cells [1] [%]	cAMP accumulation in transfected COS7 cells, Netrin 1 given before SST-14 [2] [%]	Substance
32		somatostatin-14 (from UniProt P61278 89-116) (peptide)
	41	Netrin 1 (R&D Systems) (ligand)

— patent US20060025335A1
